# Data as given in paper PMC3910116, “Super Spy variants implicate flexibility in chaperone action” (eLife, 2014).
# T1: N-terminal strep-tagged Spy (E. coli, UniProt P77754 24-161)
# T1 construct: Spy, E. coli; Probably the mature protein behind the tag; not shown: Strep tag, N-terminal, kept
# T1 sequence (looked up): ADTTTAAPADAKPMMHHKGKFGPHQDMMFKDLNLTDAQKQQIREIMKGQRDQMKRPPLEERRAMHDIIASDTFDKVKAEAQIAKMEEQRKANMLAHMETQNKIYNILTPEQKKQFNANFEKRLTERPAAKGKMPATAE
# T2: Spy H96L (E. coli, UniProt P77754 24-161, H96L)
# T2 construct: N-terminal serine from the Sumo fusion construct; the footnote says it of Spy purification in general; Spy, E. coli, mature protein; numbers count on: the mature protein; Variant of m1 found by genetic selection, remade by site-directed mutagenesis; also called super-Spy variant; source: purified; not shown: SUMO, N-terminal, cleaved (from the N-terminal serine said of Spy purification in general)
# T2 sequence: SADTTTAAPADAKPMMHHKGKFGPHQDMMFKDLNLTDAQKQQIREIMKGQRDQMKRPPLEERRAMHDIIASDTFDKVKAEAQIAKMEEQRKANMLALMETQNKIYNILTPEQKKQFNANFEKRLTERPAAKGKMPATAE
# T3: Spy Q100L (E. coli, UniProt P77754 24-161, Q100L)
# T3 construct: N-terminal serine from the Sumo fusion construct; the footnote says it of Spy purification in general; Spy, E. coli, mature protein; numbers count on: the mature protein; Variant of m1 found by genetic selection, remade by site-directed mutagenesis; also called super-Spy variant; source: purified; not shown: SUMO, N-terminal, cleaved (from the N-terminal serine said of Spy purification in general)
# T3 sequence: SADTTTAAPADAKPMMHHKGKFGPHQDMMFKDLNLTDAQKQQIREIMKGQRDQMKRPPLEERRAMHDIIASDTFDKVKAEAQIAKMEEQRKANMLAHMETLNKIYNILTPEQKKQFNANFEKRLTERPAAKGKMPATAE
# T4: Spy Q49L (E. coli, UniProt P77754 24-161, Q49L)
# T4 construct: N-terminal serine from the Sumo fusion construct; the footnote says it of Spy purification in general; Spy, E. coli, mature protein; numbers count on: the mature protein; Variant of m1 found by genetic selection, remade by site-directed mutagenesis; also called super-Spy variant; source: purified; not shown: SUMO, N-terminal, cleaved (from the N-terminal serine said of Spy purification in general)
# T4 sequence: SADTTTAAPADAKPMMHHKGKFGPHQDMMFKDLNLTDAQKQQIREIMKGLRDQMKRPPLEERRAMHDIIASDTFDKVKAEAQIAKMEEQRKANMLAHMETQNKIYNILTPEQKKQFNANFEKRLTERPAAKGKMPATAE
# T5: Spy Q25R (E. coli, UniProt P77754 24-161, Q25R)
# T5 construct: N-terminal serine from the Sumo fusion construct; the footnote says it of Spy purification in general; Spy, E. coli, mature protein; numbers count on: the mature protein; Variant of m1 found by genetic selection, remade by site-directed mutagenesis; also called super-Spy variant; source: purified; not shown: SUMO, N-terminal, cleaved (from the N-terminal serine said of Spy purification in general)
# T5 sequence: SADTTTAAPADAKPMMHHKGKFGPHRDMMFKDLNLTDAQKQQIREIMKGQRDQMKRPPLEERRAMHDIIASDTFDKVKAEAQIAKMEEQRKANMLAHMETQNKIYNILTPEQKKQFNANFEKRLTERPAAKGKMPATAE
# T6: Spy L32P (E. coli, UniProt P77754 24-161, L32P)
# T6 construct: N-terminal serine from the Sumo fusion construct; the footnote says it of Spy purification in general; Spy, E. coli, mature protein; numbers count on: the mature protein; Variant of m1 found by genetic selection, remade by site-directed mutagenesis; also called super-Spy variant; source: purified; not shown: SUMO, N-terminal, cleaved (from the N-terminal serine said of Spy purification in general)
# T6 sequence: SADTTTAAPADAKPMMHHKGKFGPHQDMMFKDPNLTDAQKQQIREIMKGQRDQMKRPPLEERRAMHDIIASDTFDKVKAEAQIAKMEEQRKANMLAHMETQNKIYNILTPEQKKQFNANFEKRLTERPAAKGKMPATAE
# T7: Spy F115I (E. coli, UniProt P77754 24-161, F115I)
# T7 construct: N-terminal serine from the Sumo fusion construct; the footnote says it of Spy purification in general; Spy, E. coli, mature protein; numbers count on: the mature protein; Variant of m1 found by genetic selection, remade by site-directed mutagenesis; also called super-Spy variant; source: purified; not shown: SUMO, N-terminal, cleaved (from the N-terminal serine said of Spy purification in general)
# T7 sequence: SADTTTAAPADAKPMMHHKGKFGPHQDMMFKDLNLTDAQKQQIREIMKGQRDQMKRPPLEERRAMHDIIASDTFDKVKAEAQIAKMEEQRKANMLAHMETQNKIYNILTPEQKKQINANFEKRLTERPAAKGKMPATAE
# T8: Spy F115L (E. coli, UniProt P77754 24-161, F115L)
# T8 construct: N-terminal serine from the Sumo fusion construct; the footnote says it of Spy purification in general; Spy, E. coli, mature protein; numbers count on: the mature protein; Variant of m1 found by genetic selection, remade by site-directed mutagenesis; also called super-Spy variant; source: purified; not shown: SUMO, N-terminal, cleaved (from the N-terminal serine said of Spy purification in general)
# T8 sequence: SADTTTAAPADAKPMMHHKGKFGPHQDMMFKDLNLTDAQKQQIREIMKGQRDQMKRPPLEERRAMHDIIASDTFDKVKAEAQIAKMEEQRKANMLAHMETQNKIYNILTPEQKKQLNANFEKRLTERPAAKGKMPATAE
# T9: Spy (wild type) (E. coli, UniProt P77754 24-161)
# T9 construct: N-terminal serine introduced from the Sumo fusion construct used for purification; numbers count on: the mature protein; construct as in Quan et al., 2011; also called WT; wild-type Spy; source: purified from a Sumo fusion construct (Quan et al., 2011); not shown: SUMO, N-terminal, cleaved (from the N-terminal serine left on the protein)
# T9 sequence: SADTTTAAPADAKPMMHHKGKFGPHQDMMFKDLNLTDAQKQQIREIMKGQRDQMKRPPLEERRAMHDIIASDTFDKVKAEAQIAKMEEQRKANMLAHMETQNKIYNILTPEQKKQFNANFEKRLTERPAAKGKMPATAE
# B1: Im7 L53A I54A tryptic fragment 5–76 (domain or fragment, UniProt Q03708 5-76, looked up)
# chain: NSISDYTEAEFVQLLKEIEKENVAATDDVLDVLLEHFVKITEHPDGTDAAYYPSDNRDDSPEGIVKEIKEWR
# notes: immunity protein 7 (Im7), residues 5-76; source: limited proteolysis of Im7 L53A I54A with trypsin
# B2: Biotinylated Im7 L53A I54A (natural protein)
# chain: SMELKNSISDYTEAEFVQLLKEIEKENVAATDDVLDVLLEHFVKITEHPDGTDAAYYPSDNRDDSPEGIVKEIKEWRAANGKPGFKQG
# modifications: biotin (EZ-link NHS-biotin at 1:1 molar ratio; site not stated)
# notes: N-terminal serine from the Sumo fusion construct; the footnote says it of Im7 purification in general; immunity protein 7 (Im7), colicin E7 immunity protein; Same protein as m10 with biotin; held on streptavidin sensors; also called biotin-conjugated Im7 L53A I54A; immunity protein 7 L53A I54A; source: purified from a Sumo fusion construct (Quan et al., 2011), biotinylated with EZ-link …
# B3: Im7 7-45 peptide (peptide)
# chain: SISDYTEAEFVQLLKEIEKENVAATDDVLDVLLEHFVKIT
# notes: N-terminal serine introduced from the Sumo fusion construct; immunity protein 7 (Im7), residues 7-45; Called a 40-amino acid peptide: 39 residues of Im7 and the N-terminal serine; An equimolar mixture of unlabelled and 15N-labelled peptide was used for PICUP and EDC; also called Im7 L53A I54A 7-45 peptide; source: expressed in vivo as a Sumo fusion construct, purified; not shown: SUMO, …
# B4: Im7 L53A I54A (natural protein)
# chain: SMELKNSISDYTEAEFVQLLKEIEKENVAATDDVLDVLLEHFVKITEHPDGTDAAYYPSDNRDDSPEGIVKEIKEWRAANGKPGFKQG
# notes: N-terminal serine from the Sumo fusion construct; the footnote says it of Im7 purification in general; immunity protein 7 (Im7), colicin E7 immunity protein; also called full length Im7 L53A I54A; immunity protein 7 L53A I54A; source: purified from a Sumo fusion construct (Quan et al., 2011); not shown: SUMO, N-terminal, cleaved (from the N-terminal serine said of Im7 purification in general)
# B5: Im7 12-45 peptide (peptide)
# chain: SEAEFVQLLKEIEKENVAATDDVLDVLLEHFVKIT
# notes: N-terminal serine from the Sumo fusion construct; the footnote says it of Im7 purification in general; immunity protein 7 (Im7), residues 12-45; source: expressed in vivo, purified; not shown: SUMO, N-terminal, cleaved (from the N-terminal serine said of Im7 purification in general)
# B6: Im7 3-45 peptide (peptide)
# chain: SLKNSISDYTEAEFVQLLKEIEKENVAATDDVLDVLLEHFVKIT
# notes: N-terminal serine from the Sumo fusion construct; the footnote says it of Im7 purification in general; immunity protein 7 (Im7), residues 3-45; source: expressed in vivo, purified; not shown: SUMO, N-terminal, cleaved (from the N-terminal serine said of Im7 purification in general)
# B7: Im7 L53A I54A tryptic fragment 5–70 (domain or fragment, UniProt Q03708 5-70, looked up)
# chain: NSISDYTEAEFVQLLKEIEKENVAATDDVLDVLLEHFVKITEHPDGTDAAYYPSDNRDDSPEGIVK
# notes: immunity protein 7 (Im7), residues 5-70; source: limited proteolysis of Im7 L53A I54A with trypsin
# B8: Im7 L53A I54A tryptic fragment 5–73 (domain or fragment, UniProt Q03708 5-73, looked up)
# chain: NSISDYTEAEFVQLLKEIEKENVAATDDVLDVLLEHFVKITEHPDGTDAAYYPSDNRDDSPEGIVKEIK
# notes: immunity protein 7 (Im7), residues 5-73; source: limited proteolysis of Im7 L53A I54A with trypsin
# B9: Im7 L53A I54A tryptic fragment 5–43 (peptide, UniProt Q03708 5-43, looked up)
# chain: NSISDYTEAEFVQLLKEIEKENVAATDDVLDVLLEHFVK
# notes: immunity protein 7 (Im7), residues 5-43; most of the α1 and α2 helices; source: limited proteolysis of Im7 L53A I54A with trypsin
# Experiments:
# Settings in all cases: both partners purified
# [1] = target: T1, N-terminal strep-tagged Spy; assay: pull-down; tryptic fragments of Im7 L53A I54A mixed with N-terminal strep-tagged Spy, strep-tactin sepharose column, eluted with 2.5 mM desthiobiotin, fragments identified by LC/MS
# [2] = target: T2, Spy H96L; assay: BLI; biotinylated Im7 L53A I54A immobilised on streptavidin sensors (Octet RED); Spy variants at 2, 1, 0.5, 0.25 and 0.125 µM; 25°C; 40 mM HEPES, 150 mM NaCl, pH 7.5; 1:1 binding model, KD = koff/kon; apparent
# [3] = target: T3, Spy Q100L; assay: as above
# [4] = target: T4, Spy Q49L; assay: as above
# [5] = target: T5, Spy Q25R; assay: as above
# [6] = target: T6, Spy L32P; assay: as above
# [7] = target: T7, Spy F115I; assay: as above
# [8] = target: T8, Spy F115L; assay: as above
# [9] = target: T9, Spy (wild type); assay: as above
# [10] = target: T2, Spy H96L; assay: HDX-MS; top-down ECD-FTICR-MS; 25 µM Spy (dimer) and 100 µM Im7 peptide (1:4), 10 mM ammonium acetate, 80% D2O, labelling time 10 s
# [11] = target: T3, Spy Q100L; assay: as above
# [12] = target: T4, Spy Q49L; assay: as above
# [13] = target: T5, Spy Q25R; assay: as above
# [14] = target: T6, Spy L32P; assay: as above
# [15] = target: T7, Spy F115I; assay: as above
# [16] = target: T8, Spy F115L; assay: as above
# [17] = target: T9, Spy (wild type); assay: ITC; Spy with full length Im7 L53A I54A or purified Im7 peptides; conditions and who was titrated not told
binder,measurement,setting,value
B1,binding result,[1],binds
B2,Kd,[2],1000 nM
same,koff,[2],0.266 s⁻¹
same,Kd,[3],230 nM
same,koff,[3],0.027 s⁻¹
same,Kd,[4],760 nM
same,koff,[4],0.176 s⁻¹
same,Kd,[5],870 nM
same,koff,[5],0.198 s⁻¹
same,Kd,[6],200 nM
same,koff,[6],0.03 s⁻¹
same,Kd,[7],1170 nM
same,koff,[7],0.328 s⁻¹
same,Kd,[8],900 nM
same,koff,[8],0.245 s⁻¹
same,Kd,[9],1150 nM
same,koff,[9],0.456 s⁻¹
B3,binding result,[10],binds
same,binding result,[11],binds
same,binding result,[12],binds
same,binding result,[13],binds
same,binding result,[14],binds
same,binding result,[15],binds
same,binding result,[16],binds
same,Kd,[17],2600 nM
B4,Kd,[17],2500 nM
B5,Kd,[17],8000 nM
B6,Kd,[17],2300 nM
B7,binding result,[1],binds
B8,binding result,[1],binds
B9,binding result,[1],binds
